Test results taken from US20210388087A1 (Chugai, published 2021).

B1: CE115HA000 D73K (antibody, human IgG1, kappa, L234A L235A, N297A, name in Kabat numbering)
heavy: QVQLVESGGGVVQPGRSLRLSCAASGFTFSNAWMHWVRQAPGKGLEWVAQIKAKSNNYATYYAESVKGRFTISRDKSKNSLYLQMNSLKTEDTAVYYCRYVHYGAYYGVDAWGQGTTVTVSSASTKGPSVFPLAPSSKSTSGGTAALGCLVKDYFPEPVTVSWNSGALTSGVHTFPAVLQSSGLYSLSSVVTVPSSSLGTQTYICNVNHKPSNTKVDKKVEPKSCDKTHTCPPCPAPEAAGGPSVFLFPPKPKDTLMISRTPEVTCVVVDVSHEDPEVKFNWYVDGVEVHNAKTKPREEQYASTYRVVSVLTVLHQDWLNGKEYKCKVSNKALPAPIEKTISKAKGQPREPQVYTLPPSRCELTKNQVSLSCAVKGFYPSDIAVEWESNGQPENNYKTTPPVLDSDGSFFLVSKLTVDKSRWQQGNVFSCSVMHEALHNHYTQKSLSLSPDYKDDDDK
chain: EPKSSDKTHTCPPCPAPELLGGPSVFLFPPKPKDTLMISRTPEVTCVVVDVSHEDPEVKFNWYVDGVEVHNAKTKPREEQYNSTYRVVSVLTVLHQDWLNGKEYKCKVSNKALPAPIEKTISKAKGQPREPQVCTLPPSRDELTKNQVSLWCLVKGFYPSDIAVEWESNGQPENNYKTTPPVLDSDGSFFLYSKLTVDKSRWQQGNVFSCSVMHEALHNRYTQKSLSLSP
light: DIVMTQSPLSLPVTPGEPASISCRSSQSLVHSNRNTYLHWYQQKPGQAPRLLIYKVSNRFSGVPDRFSGSGSGTDFTLKISRVEAEDVGVYYCGQGTQVPYTFGQGTKLEIKRTVAAPSVFIFPPSDEQLKSGTASVVCLLNNFYPREAKVQWKVDNALQSGNSQESVTEQDSKDSTYSLSSTLTLSKADYEKHKVYACEVTHQGLSSPVTKSFNRGEC
notes: one-arm antibody
B2: CE115HA000 D73R (antibody, human IgG1, kappa, L234A L235A, N297A, name in Kabat numbering)
heavy: QVQLVESGGGVVQPGRSLRLSCAASGFTFSNAWMHWVRQAPGKGLEWVAQIKAKSNNYATYYAESVKGRFTISRDRSKNSLYLQMNSLKTEDTAVYYCRYVHYGAYYGVDAWGQGTTVTVSSASTKGPSVFPLAPSSKSTSGGTAALGCLVKDYFPEPVTVSWNSGALTSGVHTFPAVLQSSGLYSLSSVVTVPSSSLGTQTYICNVNHKPSNTKVDKKVEPKSCDKTHTCPPCPAPEAAGGPSVFLFPPKPKDTLMISRTPEVTCVVVDVSHEDPEVKFNWYVDGVEVHNAKTKPREEQYASTYRVVSVLTVLHQDWLNGKEYKCKVSNKALPAPIEKTISKAKGQPREPQVYTLPPSRCELTKNQVSLSCAVKGFYPSDIAVEWESNGQPENNYKTTPPVLDSDGSFFLVSKLTVDKSRWQQGNVFSCSVMHEALHNHYTQKSLSLSPDYKDDDDK
chain: EPKSSDKTHTCPPCPAPELLGGPSVFLFPPKPKDTLMISRTPEVTCVVVDVSHEDPEVKFNWYVDGVEVHNAKTKPREEQYNSTYRVVSVLTVLHQDWLNGKEYKCKVSNKALPAPIEKTISKAKGQPREPQVCTLPPSRDELTKNQVSLWCLVKGFYPSDIAVEWESNGQPENNYKTTPPVLDSDGSFFLYSKLTVDKSRWQQGNVFSCSVMHEALHNRYTQKSLSLSP
light: DIVMTQSPLSLPVTPGEPASISCRSSQSLVHSNRNTYLHWYQQKPGQAPRLLIYKVSNRFSGVPDRFSGSGSGTDFTLKISRVEAEDVGVYYCGQGTQVPYTFGQGTKLEIKRTVAAPSVFIFPPSDEQLKSGTASVVCLLNNFYPREAKVQWKVDNALQSGNSQESVTEQDSKDSTYSLSSTLTLSKADYEKHKVYACEVTHQGLSSPVTKSFNRGEC
notes: one-arm antibody
B3: CE115HA000 D73N (antibody, human IgG1, kappa, L234A L235A, N297A, name in Kabat numbering)
heavy: QVQLVESGGGVVQPGRSLRLSCAASGFTFSNAWMHWVRQAPGKGLEWVAQIKAKSNNYATYYAESVKGRFTISRDNSKNSLYLQMNSLKTEDTAVYYCRYVHYGAYYGVDAWGQGTTVTVSSASTKGPSVFPLAPSSKSTSGGTAALGCLVKDYFPEPVTVSWNSGALTSGVHTFPAVLQSSGLYSLSSVVTVPSSSLGTQTYICNVNHKPSNTKVDKKVEPKSCDKTHTCPPCPAPEAAGGPSVFLFPPKPKDTLMISRTPEVTCVVVDVSHEDPEVKFNWYVDGVEVHNAKTKPREEQYASTYRVVSVLTVLHQDWLNGKEYKCKVSNKALPAPIEKTISKAKGQPREPQVYTLPPSRCELTKNQVSLSCAVKGFYPSDIAVEWESNGQPENNYKTTPPVLDSDGSFFLVSKLTVDKSRWQQGNVFSCSVMHEALHNHYTQKSLSLSPDYKDDDDK
chain: EPKSSDKTHTCPPCPAPELLGGPSVFLFPPKPKDTLMISRTPEVTCVVVDVSHEDPEVKFNWYVDGVEVHNAKTKPREEQYNSTYRVVSVLTVLHQDWLNGKEYKCKVSNKALPAPIEKTISKAKGQPREPQVCTLPPSRDELTKNQVSLWCLVKGFYPSDIAVEWESNGQPENNYKTTPPVLDSDGSFFLYSKLTVDKSRWQQGNVFSCSVMHEALHNRYTQKSLSLSP
light: DIVMTQSPLSLPVTPGEPASISCRSSQSLVHSNRNTYLHWYQQKPGQAPRLLIYKVSNRFSGVPDRFSGSGSGTDFTLKISRVEAEDVGVYYCGQGTQVPYTFGQGTKLEIKRTVAAPSVFIFPPSDEQLKSGTASVVCLLNNFYPREAKVQWKVDNALQSGNSQESVTEQDSKDSTYSLSSTLTLSKADYEKHKVYACEVTHQGLSSPVTKSFNRGEC
notes: one-arm antibody
B4: CE115HA000 D73T (antibody, human IgG1, kappa, L234A L235A, N297A, name in Kabat numbering)
heavy: QVQLVESGGGVVQPGRSLRLSCAASGFTFSNAWMHWVRQAPGKGLEWVAQIKAKSNNYATYYAESVKGRFTISRDTSKNSLYLQMNSLKTEDTAVYYCRYVHYGAYYGVDAWGQGTTVTVSSASTKGPSVFPLAPSSKSTSGGTAALGCLVKDYFPEPVTVSWNSGALTSGVHTFPAVLQSSGLYSLSSVVTVPSSSLGTQTYICNVNHKPSNTKVDKKVEPKSCDKTHTCPPCPAPEAAGGPSVFLFPPKPKDTLMISRTPEVTCVVVDVSHEDPEVKFNWYVDGVEVHNAKTKPREEQYASTYRVVSVLTVLHQDWLNGKEYKCKVSNKALPAPIEKTISKAKGQPREPQVYTLPPSRCELTKNQVSLSCAVKGFYPSDIAVEWESNGQPENNYKTTPPVLDSDGSFFLVSKLTVDKSRWQQGNVFSCSVMHEALHNHYTQKSLSLSPDYKDDDDK
chain: EPKSSDKTHTCPPCPAPELLGGPSVFLFPPKPKDTLMISRTPEVTCVVVDVSHEDPEVKFNWYVDGVEVHNAKTKPREEQYNSTYRVVSVLTVLHQDWLNGKEYKCKVSNKALPAPIEKTISKAKGQPREPQVCTLPPSRDELTKNQVSLWCLVKGFYPSDIAVEWESNGQPENNYKTTPPVLDSDGSFFLYSKLTVDKSRWQQGNVFSCSVMHEALHNRYTQKSLSLSP
light: DIVMTQSPLSLPVTPGEPASISCRSSQSLVHSNRNTYLHWYQQKPGQAPRLLIYKVSNRFSGVPDRFSGSGSGTDFTLKISRVEAEDVGVYYCGQGTQVPYTFGQGTKLEIKRTVAAPSVFIFPPSDEQLKSGTASVVCLLNNFYPREAKVQWKVDNALQSGNSQESVTEQDSKDSTYSLSSTLTLSKADYEKHKVYACEVTHQGLSSPVTKSFNRGEC
notes: one-arm antibody

Target: T1, CD3 epsilon homodimer protein (UniProt P07766 23-126)
T1 construct: also called CD3 (CD3 epsilon)
Experiment: SPR, CD3 epsilon homodimer on chip, one-arm antibody as analyte;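 also: surface plasmon resonance at 25 °C with CD3 epsilon homodimer amine-coupled to a CM4 sensor chip, antibody injected as analyte, HBS-EP+ as running buffer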

T1 sequence (P07766 23-126): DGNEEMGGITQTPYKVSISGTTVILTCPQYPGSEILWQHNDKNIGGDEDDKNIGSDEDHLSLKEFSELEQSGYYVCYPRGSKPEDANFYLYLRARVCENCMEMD

Row | Binder | KD ratio (KD of CE115HA000/KD of altered form)
1 | B1 | 0.74
2 | B2 | 0.79
3 | B3 | 0.7
4 | B4 | 0.78
